Laboratory results published in patent publication US20260049148.

Tested on: internally quenched peptide probe (MCA)-Gly-Ser-Ala-Ile-Ala-Leu-Tyr-Gly-Gly-Ser-Lys (DNP)-D-Arg with CM AIALY (SEQ ID NO: 5)

Chain of human recombinant MMP9 (R&D Systems, catalog No: 911-MP) (chain, as listed by the source): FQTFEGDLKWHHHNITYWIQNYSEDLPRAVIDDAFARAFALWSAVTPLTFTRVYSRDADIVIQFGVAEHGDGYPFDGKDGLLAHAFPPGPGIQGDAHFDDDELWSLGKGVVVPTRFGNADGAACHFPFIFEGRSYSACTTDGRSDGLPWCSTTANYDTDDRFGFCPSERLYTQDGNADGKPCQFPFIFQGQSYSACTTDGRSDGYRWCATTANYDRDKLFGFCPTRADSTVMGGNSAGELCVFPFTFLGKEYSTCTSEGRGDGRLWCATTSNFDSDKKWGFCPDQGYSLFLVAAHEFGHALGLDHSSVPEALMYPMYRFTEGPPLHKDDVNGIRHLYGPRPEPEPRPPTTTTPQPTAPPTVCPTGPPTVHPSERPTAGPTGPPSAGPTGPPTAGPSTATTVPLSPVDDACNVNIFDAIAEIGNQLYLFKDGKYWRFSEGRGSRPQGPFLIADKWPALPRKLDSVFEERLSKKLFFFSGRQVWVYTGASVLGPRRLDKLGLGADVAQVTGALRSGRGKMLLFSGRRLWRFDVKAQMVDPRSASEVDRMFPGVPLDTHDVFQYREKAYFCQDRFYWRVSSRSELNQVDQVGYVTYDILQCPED

human recombinant MMP9 (R&D Systems, catalog No: 911-MP)
Probe Cleavage (kcat/KM): 41000 M⁻¹ s⁻¹
Probe Cleavage (pM/s): 87.7 pM/s
